The results in this text go back to US20140142049A1, “PEGYLATED APELIN AND USES THEREOF” (priority 2011, published 2014).

For assay [1], the target named is T1, APJ receptor (Homo sapiens, UniProt P35414).
T1 construct: purchased Perkin Elmer, Waltham, Mass; host or cells: transfected CHO cells (membrane fraction)
T1 sequence (P35414 1-380): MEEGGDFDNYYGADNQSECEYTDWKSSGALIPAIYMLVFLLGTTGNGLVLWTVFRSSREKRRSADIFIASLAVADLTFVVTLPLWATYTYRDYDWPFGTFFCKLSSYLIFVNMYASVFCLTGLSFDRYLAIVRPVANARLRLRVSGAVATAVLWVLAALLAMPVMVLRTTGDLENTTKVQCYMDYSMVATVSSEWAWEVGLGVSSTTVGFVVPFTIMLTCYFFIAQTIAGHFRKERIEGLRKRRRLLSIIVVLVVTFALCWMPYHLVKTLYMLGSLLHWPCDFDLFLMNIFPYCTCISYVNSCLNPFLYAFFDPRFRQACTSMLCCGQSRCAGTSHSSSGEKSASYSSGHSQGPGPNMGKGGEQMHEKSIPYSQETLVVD
In words: APJ receptor binding assay (competitive radioligand binding). The following applies: negative control. On the procedure:
The binding was performed using competition with ^125I-labelled [Glp^65, Nle^75, Tyr^77]-apelin13 probe for binding to the APJ receptor in a membrane fraction from the transfected CHO cells (Perkin Elmer, Waltham, Mass.). Serially diluted peptide was incubated with membrane and probe for 1 hour at room temperature. The mixture was then filtered over a 1.2 um glass fiber type C filterplate (Millipore Corp., Billerica, Mass.), preblocked with 0.5% polyethylenimine. The plate was washed 4 times with 200 ul ice cold binding buffer and then another 4 times with ice cold 50 mM Tris-HCl, pH7.4, dried and counted with scintillation fluid. The data was analyzed with Graphpad Prism 4 (GraphPad Software, Inc, La Jolla, Calif.) using nonlinear regression.

The target in assay [2] is T2, APJ receptor in a membrane fraction from transfected CHO cells (Perkin Elmer) (UniProt P35414 1-380, limits assumed).
T2 construct: whole, on cells; The receptor stood in a membrane fraction of transfected CHO cells, not on whole cells
T2 sequence (looked up): T1 sequence (P35414 1-380)
Put plainly: competitive radioligand binding, 125I-[Glp65, Nle75, Tyr77]-apelin13 probe, APJ membranes from transfected CHO cells. Here is the method:
The mixture was then filtered over a 1.2 um glass fiber type C filterplate (Millipore Corp., Billerica, Mass.), preblocked with 0.5% polyethylenimine. The plate was washed 4 times with 200 ul ice cold binding buffer and then another 4 times with ice cold 50 mM Tris-HCl, pH7.4, dried and counted with scintillation fluid. The data was analyzed with Graphpad Prism 4 (GraphPad Software, Inc, La Jolla, Calif.) using nonlinear regression.

With “α-MSH: 13 amino acid α-MSH peptide negative control”, the “binding to APJ receptor (in words)” value in assay [1] was “no binding”. For SYSMEHFRWGKPV (peptide, UniProt P01189 138-150, looked up, also called negative control) [13 amino acid α-MSH peptide], in assay [2], the binding result is recorded as “no binding”.
